Data as given in the NTF2 design screens of Basanta et al. (2020).

Experiment: protease stability score; higher = more stable; yeast display proteolysis, trypsin and chymotrypsin;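 note: log10 excess protease needed over predicted unfolded state with 0 meaning unfolded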
For “DEQEKAERLAKTAVEAYETNDPEVMRRLLPPDAEVRVGDKEIHGREENSRQVQRELDRVDRVQVSMKTVHVDGNKLNVVLELRVEHDGETDTREIVIIFDVRNGTIQAQEINIG”, the protease stability score was -0.05.
With “DEQELAEELFRDLTEAMKKGDPEQRKDLADEDVHQQVGDKTYHGREDNMKAMEELKRNYDSISIKLTSLSVHNGKVRIVFKVDFEHNGKTSTRRVVAHAYLQGDKVKIKKISEQ” the protease stability score was 0.749.
Sequence “DEQENEKNVKDVQHAMETGDEELMLRNAPPDVRMEIGDKTLRGREEVSKEFKKFAKQIDRHSIHSIRFRGDKFEINMVVTVNGRHAVVNIELQIHNGKVNSMRVDPHDLEQQKQ” has a protease stability score of -0.249.
In the case of “DEQENKEIMRRVKEAFEHNDPDMFKKLFDEDATVEVGDKSFQGRDKIKEAMTQFKNQADRVRVDSVNVRGNKVDATVTADFNGKTASFKLEITWHNGKIKHMRINPEDNKKLQG”, the protease stability score was 0.951.
For “DEQEQAEELAKKMMENMETGDFDKRANQADPDARMEIGDKDVRGRETIASHQRELSDHIDHANATVLEVRVSNGDVEVRMQFRVQHNGRSRQEERIINATISGDKMRIKEFTQS”, the protease stability score was -0.116.
In the case of “DEQEQAKDFARQLQKVFRYGDEERARQLADKHVKVNVGDKIFHGREKVQKWIREIKNRSDKYKIDIKSIRVKNGRITIEFKAQEEFNGERRRVTVNAKAKLDNGEIRLTSVDQK”, the protease stability score was 0.128.
Work on “DEQERAERLMEEMVRVLHTGDEKRLQQLADPNARFTIGDTRVHGSDEFARLLREHADNADSMQFRVKSIEVEGNHINIKFSFSVDINGRTESYTANIRIVEKGDKMQFHTQDMK” yielded a protease stability score of 0.402.
“DEQERAQEALRRFLRVFQEGDPDRARQQADKDVQMVVGDKEYEGREQVSRAIESLRERVDEFHITVRRITVSGNRVVVDAKLKLNINGKEDDVTLKLVIDVSGDKISIKRVEVR” showed a protease stability score of 1.12.
“DEQEVREAAEVIVTGNEEQLRDNADPNVKLQVGDERYHGREHFVRMISKFQKQVDHRSVDHFHVKGDKVRINMVMHINGQHVVLQINAQIHNGRIKSMEIKVRDEKDKRILDQVEG” gave a protease stability score of 1.76.
In the case of “DEQHDREMVSRLKTALQHGDPDELVELADENARVEIGEKTVHGRHQIREQAKRWRERVDHVQIEDVDVQNGQARVQMTVDHNGRTRKEVVQMTAHNGTVESLRFQSQ”, the protease stability score was -0.216.
Work on “DEQIVHRAKEMDKAFNRGDPDLFNKMADENARVEVGDNVLNGRSDYKRYMDQVRKDLNVEIKSVHHQKRPNHARVKVDQVMNHNGQPRRRHIDIKIRAHNGTAKNIHFREDG” yielded a protease stability score of -0.326.
For “DEQKDAERAIEALRVMLQGDDDSVRKMVDPNATLTVGDTEYKGREEFVKYARTLRRRADHFRIDTVHVEGDTAVMQAQVNVNGKTKTIRINVRAHNGRVVHVHVDPDQLKRIES”, the protease stability score was 0.831.
Sequence “DEQKDDKRSKDIKKQVEKGNEHEILKLFDKDAKVRVGDKVVQGRESIKDEIHHLRRRVDNIEVKEVHAQGDKVTVDVQVDVNGVQIRQVLHIQMNNGKVTDAKVEFTNEEQLRQMHG” has a protease stability score of 0.099.
For “DEQKDEEIRRVIENNDWTEVKELADENVKASVGDKRYHGREEMEKFWKIVHDRADHIEYQDIHVHNGQFNAQVVINVNGQELDVQITMRAENGKITNMSIHATSEEVKERIKEMFS”, the protease stability score was 0.73.
For “DEQKEAEDIINTWREVLKDNDTDKARELADKHVRVVVGDKELHGREDFVRYFHEVAHRVDHIDIDVLDLTVHNGRIHFEADAVADVNGRKDTFVIRMVWQSQGDKHNMQEMHVP”, the protease stability score was -0.09.
In the case of “DEQKEMKRFANQFNSAIRHGDEKKMADLFDPNARMEVGDTSWNGRRNLEKEWKRRNETIDHARVHLQDVSVDGNSATVVFVLVENVNGEERNDVYVFVAVKHNGKIVIDHMTQK”, the protease stability score was 0.159.
“DEQKERDKAKKIARNFQKNNEHRFEEMMDPNVKFVYGDKEVNGRDTYRKNLHELMTRADSVDIDHVDVRNGRVNVNLVVEVNGNRAEDRVQFTVHNGHIVKVNIDPKVMETAKS” gave a protease stability score of -0.326.
With “DEQKIKELLYKAAEAYINGNDELVRKLLKDDGKLEAGDYEYRGVDQVVKVAQDFKKYGVELEIKNYKYDGDRLDVEVELHLGGTTWKFTVTVQADGGKVDKVQFHFSEEARKRIQDG” the protease stability score was 0.447.
With “DEQKLAEDLAKEIIKALETGNSHRLHELMDENARLRVGDKDYTGDHRIAKWMKHKRDRVDRVEATIQEIDADGDKVTIVIEIVFDHNGRRERVIVDARAEIRGDKVRMKELHWS” the protease stability score was -0.101.
Sequence “DEQKQAHDLLRQLDEAMRENDPDTMRDLFDKDAHVKVGDKEFRGTQKVREFNEELKRQADHFSVDVKRMETRPGHFNVQLVLHMETNGRTDHLKFRVRMRVVNGRAVVVTLHQG” has a protease stability score of 0.692.
In the case of “DEQKQRDFAHTYKDVFNTGDPDEQRKMVDPNARAQVGDNDFHGDEEFDKWAEERRDRVDHVEIRSMSVHGNKVSMDVDVVYDGRRVRFSMRMEYHNGRFKHFKVNPDSQRKLEG”, the protease stability score was 0.615.
Sequence “DEQKTRQLEEVKKQLEHGNEREAKKNFDENVHINVGDKQIHGMHDAAREMATSWTQIRNEMTITRVHVRGDKIEIRASMVQNTNGRPRKAKVHIDVRINNGKIKRVTVKYDG” has a protease stability score of 0.181.
In the case of “DEQLNKHFVRLMQNNDFEELVRNADKDVRVRIGNKEYQGREEANTALKTFHKQVDKLTIRSYDYHNGSAKIDLEVRFNGQKFRFVVTARLHNGKMKSMRINFTNPEDQKQLDRDMS”, the protease stability score was 1.41.
In the case of “DEQLRDRVTQLFKVWQTGDPKKVSEMFDKDARLEYGDKTVHGMEEARHQQDTRRREARLSLDIRSINVQGNQVEIDVRIEEDENGKPDTKQVTIRIRARNGRIHNAKLQDDG”, the protease stability score was 0.1.
For “DEQLVKILQRFRKAMEHGDPKEAQKYFDPNAEFVYGDKEIHGREQVNTWIHTFMRSIRVDIKSLTVRASGNKAHIQYSAVYEENGRPKTAHFHMTVQVTNGKIKHADVKYRG”, the protease stability score was 1.1.
“DEQNEAKRLVEKLQSIVKSGDEEEWMKQFDENVKVSVGDKTVHGREDMVKQYQQHVKRADTMELQVNEYSVHNGRVSIRYKMRVDVNGQRHTTEAHVDFRNVNGRFKAQSVNQK” showed a protease stability score of 0.
With “DEQNLQDAAQRVDEVLRKGNEEDVTKMMDKDATMTVGDKVIHGRSKVRQQVRRLHEQVDHQEVEYVTAHNGRIKINMQADVNGQSLTFTVHIKVRNGRVKEIQIDPDYKRNLDR” the protease stability score was -0.224.
Work on “DEQNQIKKIADDLETAARTNDPDKLLNMVDPNAKITYGDEEVHGRREAKRWLKEVNDHVDHMHVDIKRVHASGDKFTLRYRLVLVQNGKKDTTRVVATLRRTDGRVQIQSIDSG” yielded a protease stability score of 0.033.
Sequence “DEQQAKRVAEEFNRVLQTGDNRKAMQLADKDVKLHVGDKDVHGRETMMKLVRKERDRVDHVEIKEVTIQGNKIDVILTVVVNGRHKEKHYVLHLHNGRIEDLSVRST” has a protease stability score of 0.005.
With “DEQRIADNLDERFRRVMENNNEDELRKLFDKDARVRVGDKTLHGREEVDKRLREILQRADHIDIKVNDIHVRGDKINIHFKIRIVVDGRDRFYTAVVRADVHNGEAKIVELKQS” the protease stability score was 0.213.
“DEQRQAEEWVDKLESELHDGDFTKFANMADENARIVIGDKEIHGRENLQEHAKELKHRVDHVEMHVRHLYVTNGTLTVDVDMVLNHNGQRDKRRVVIVATSENGKFRAQHVTYS” gave a protease stability score of 1.05.
With “DEQRYRELMETAFHLVISGDEDTLDQIGKPNMEYHYVDRTLHGKDVLRVLVKIVKRVGAEARVEEAEVNGDTARAKFQYRKGDNTVQTDAEVKYEGDQIKKARVRLNDEVRKVLKDG” the protease stability score was 0.174.
Sequence “DEQSEAEKFARDIQKIANHNNFERLARMADKDVKYNVGDKVITGEEKAIEHHRRLQKQFDSMRLEIESVRVQGEKIVVVARYTVEVNGTTRSERFVLVAEVHNGTIRIKTVQQG” has a protease stability score of -0.167.
In the case of “DEQSVAEELFENLQDAVRENNPDEYKKLVDPNVNFDVGDKKVHGREQASEKFRQDLERADHIDMKVTSLRVDNGRAQADVRVTRVINGESETVEYILRFEVHGDEAVVKSQHDK”, the protease stability score was 0.45.
“DEQTAAKKANELAEAISTGDPERVMELADKDVKVVVGDKTYHGKEDLREMAKRFRDRVDHAQIDSVTNDGEHAKIHMRVEVNGHTVEIDLVIEARNGHAKHLQVDPDDQRKLEG” showed a protease stability score of 0.919.
“DEQTHAEELARNFVTAIRTNNDQDIRDLFDKDARVEVGDKTIHGRENIARSIITIAKRVDSVDIRIQHVEVQGDKINIKMERRYDHNGQEHKKDLTMVARLTNGHMRIKVVKMD” showed a protease stability score of 0.885.
With “DEQTKAERFVQRVEEILKHGDEKKYAHLADKNVKVKYGDKEWHGREHWEKEVKKTRDKVDDIRIDYKELQVHNGKVDVRFQVRNNHNGKNESRDASYTLDDHNGRIRIQSMHVK” the protease stability score was -0.009.
In the case of “DEQTKAQQFAEDVVKANQQNDKDRLTEQFDKNARVQVGEKEVHGREHIMEELIKLMTEADKVDVKVRHVHAQGDKVHLDIHFRMRVNGQDHDSRMTIVARNSNGTVVIESVDVK”, the protease stability score was 1.19.
With “DEQVLRVLNEYLEDLKRNNEERLRKLADPNVKFQVGDKTLHGMEDAVNHWRHLLDHMELRIDITEVNVSNGRAVVNARASQNVNGRPNDNEVQIVAEAHNGTLKFVEWRFDPDRQRKIDS” the protease stability score was 0.114.
“DEQVQKQFKEAMRNREKGDKDKVVENFDKHVKVSVGDRTYHGMDDIARRQNEHMKEIRVEYRDVKMSVDNGKIVIHVRQQLEDNGEPREFSYTAEANATNGRIKSYRVDMDPEQVREVDR” showed a protease stability score of -0.215.
“DEQWLNRLNRVFEHNNEEDLIKNMDPNVRVEIGDKRVRGRHKVKEALDRLKEEADHLQLKSVHVQGDKVSATMEMVVNGKHVQMTVTIEFTNGRIKNQRYKATDEKDKKVINDIMG” gave a protease stability score of 0.34.
With “DERAADAIERLLKAMKDNDPSELSKQADENVHFDVGEKKYHGMETYARTVAKERHDAEQTYRLKDYRVDENHVSFNMRVVQTNNGKPVDVEAILRANVKGDKVKSMRIDEHK” the protease stability score was -0.23.
“DERAAQTAVDLMKTNNERDRVKMADENVRYNVGDKTVHGREEWKKFAEQQRTSIDHMKIDDVKHHNGRIQVDMVVVVNGKKFRFVLQATVHNGKFKYFQRKVRDDEIRKILRRINK” showed a protease stability score of 0.235.
With “DERAEELLQRWMDAQRTGNPDEFVKLLDPNARYVVGDKEIHGSEQFKTHWQRQQDEMNVKVDVEDVKFSGNKISVRFHIEVDVNGRPLTDTATATWDLHNGRIKRQVYHLDPEFLRQVDS” the protease stability score was 0.936.
For “DERAEELVKRIFEALHDGDPQKFVNNIDPNARVNIGDEEIHGRKDAEREIQKRLEHSRVRFDLRSFRVSNGRAEATANVQENHNGRPQTNTVKATFVIHDGRVKEINMQHDG”, the protease stability score was -0.101.
Work on “DERAHEAIENWLRAEQTNDPKQVKDNADPNARVHVGDKVLHGMEEIQDELKRRIDQARYHIKDFHIDIQGEKAQIDREYTFSINGRPMSNTVRQEAKVDNGKIKEVNFRVSEELEDQEHK” yielded a protease stability score of -0.242.
In the case of “DERAHSHVEDFFRNLKSGNEDEIRKLLDPNARIKVGDKVIHGRDDAKRYVQQQKREMRMEYDVKTVDAQGDKIQVQVNVTQQHNGRPVQYQQNLHMTVENGDIHTVNYQMDTRIERVQES”, the protease stability score was -0.231.
In the case of “DERAIRTVTRFWTAIKHNDPDKAVENVDPNARFRIGDREVDGDEDAKQWIEEMKRHMHIDIRSLRARDQGDKIEINFKFVISYNGRPQSQTQHATARVHNGKIHEVDINFDDQKKRELDS”, the protease stability score was -0.006.
Sequence “DERAKEQMKNFQQAVSEGDPDQFRELMDKDARMVIGDQQLHGREKMMHQWQRLTRRIRREVKSVDVQVRGDTAELDIHFEQRKDGQPTKNSAVLEAVVHNGKVKELRVKNKR” has a protease stability score of 0.078.
“DERAKEVFKELIEAWKHGNEDQVREMADKDARFTVGDKEIHGREEWAKQIRERHEKIRFEMRIRHVHVNGDRLSIEADFSVDINGQPLSYRMKIELRIHNGKIKELVFQVSEEDKNKQKR” gave a protease stability score of 0.576.
